The values below come from paper PMC3798605, “Independent Pathways Can Transduce the Life-Cycle Differentiation Signal in Trypanosoma brucei” (PLoS Pathogens, 2013).

pKd: −log10 of the molar value.

In this experiment the target is TbPTP1. The experiment is described as follows: SPR. Particulars: 2 mM citrate, 25°C, 10 mM HEPES, pH 7.4, 150 mM NaCl, 0.05% P20, 2 mM DTT, 20 mM MgCl2; for kon: parent: 0.0012; for koff: parent: 0.05; for pKd: parent: 42.

Broadly, the kon is the second-order rate constant of association. A word on the koff: it is a measure of how fast the partners let go of each other. For orientation: pKd means the negative decadic logarithm of the Kd, by convention in mol/L. Consider TbPIP39 wild type D57A, for which the on-rate (kon) amounted to 1300 M⁻¹ s⁻¹, the koff was 0.04 s⁻¹ and the pKd was 4.51.

Turning to TbPIP39 wild type DD mutant, the kon was found to be 1200 M⁻¹ s⁻¹, the koff stood at 0.05 s⁻¹ and the negative-log Kd (pKd) is 4.38.

Regarding TbPIP39 wild type T63A; V64A, the kon was 1100 M⁻¹ s⁻¹, the off-rate constant (koff) was found to be 0.03 s⁻¹ and the pKd is 4.52.
